For two molecules, activity results are on record in US20240301385, “DNA MODIFYING ENZYMES AND ACTIVE FRAGMENTS AND VARIANTS THEREOF AND METHODS OF USE” (LIFEEDIT THERAPEUTICS, INC., published 2024).

This data set addresses T1, APG09980-L16-nAPG07433.1 cytosine base editor (synthetic).
T1 chain: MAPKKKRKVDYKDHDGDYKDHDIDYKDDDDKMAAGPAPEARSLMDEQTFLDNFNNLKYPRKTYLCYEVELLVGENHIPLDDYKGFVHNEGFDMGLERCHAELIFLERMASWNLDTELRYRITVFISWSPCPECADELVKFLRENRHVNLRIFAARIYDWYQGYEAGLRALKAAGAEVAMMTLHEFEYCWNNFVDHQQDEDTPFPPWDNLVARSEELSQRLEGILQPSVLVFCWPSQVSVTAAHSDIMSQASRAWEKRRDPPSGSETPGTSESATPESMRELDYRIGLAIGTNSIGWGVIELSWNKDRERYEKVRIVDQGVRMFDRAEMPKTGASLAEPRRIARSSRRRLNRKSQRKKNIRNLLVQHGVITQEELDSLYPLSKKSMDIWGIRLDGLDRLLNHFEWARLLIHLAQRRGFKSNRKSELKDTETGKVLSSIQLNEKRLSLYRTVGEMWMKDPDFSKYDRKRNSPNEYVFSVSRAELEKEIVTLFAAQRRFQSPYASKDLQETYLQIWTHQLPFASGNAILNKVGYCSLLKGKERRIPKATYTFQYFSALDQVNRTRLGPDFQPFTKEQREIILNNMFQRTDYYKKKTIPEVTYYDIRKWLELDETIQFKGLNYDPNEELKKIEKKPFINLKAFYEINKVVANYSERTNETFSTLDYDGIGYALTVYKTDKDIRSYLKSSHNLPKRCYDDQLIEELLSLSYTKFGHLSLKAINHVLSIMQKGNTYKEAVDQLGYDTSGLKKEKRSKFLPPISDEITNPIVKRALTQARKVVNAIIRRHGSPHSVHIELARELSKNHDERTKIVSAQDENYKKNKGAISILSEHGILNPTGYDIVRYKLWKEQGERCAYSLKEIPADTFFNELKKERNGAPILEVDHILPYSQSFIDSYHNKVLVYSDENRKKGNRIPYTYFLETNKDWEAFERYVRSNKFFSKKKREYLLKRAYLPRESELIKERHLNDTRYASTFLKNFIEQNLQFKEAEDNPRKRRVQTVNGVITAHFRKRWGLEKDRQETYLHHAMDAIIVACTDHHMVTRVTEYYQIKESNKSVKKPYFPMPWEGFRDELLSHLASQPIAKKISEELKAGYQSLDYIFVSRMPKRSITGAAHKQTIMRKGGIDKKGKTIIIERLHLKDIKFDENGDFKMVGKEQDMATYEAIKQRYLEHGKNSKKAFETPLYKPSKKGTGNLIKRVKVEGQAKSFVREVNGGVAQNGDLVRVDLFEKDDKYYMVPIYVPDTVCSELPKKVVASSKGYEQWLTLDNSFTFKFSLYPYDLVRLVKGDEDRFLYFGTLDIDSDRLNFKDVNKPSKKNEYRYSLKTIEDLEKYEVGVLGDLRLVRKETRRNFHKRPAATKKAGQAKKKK
As to the kind of experiment: cell_activity; HEK293FT; PAM SEQ 152. The settings on record: tags: SV40 NLS, 3xFLAG N-term; nucleoplasmin NLS C-term. The method, boiled down: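 Editing read out by next-generation sequencing (MiSeq 2×250) of PCR amplicons spanning the target site, analysed for INDELs or % cytosine conversion per position (position 1 nearest PAM).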

B1: SGN000169 sgRNA ; SGN000169 target (ssRNA ; dsDNA)
RNA: CACAUCUCGAGCAAGACGUUGUCAUAGUUCCAUUAAAGCCAAAAGUGGCUUUGAUGUUUCUAUGAUAAGGGUUUCGACCCGUGGCGUCGGGGAUCGCCUGCCCAUUGAAAUGGGCUUCUCCCCAUUUAUU
DNA 1: CACATCTCGAGCAAGACGTT
DNA 2: AACGTCTTGCTCGAGATGTG
Take B1: the activity stood at 24.8 % mutated reads.

B2: SGN000930 sgRNA ; SGN000930 target (ssRNA ; dsDNA)
RNA: GAACAACUCAAAUGGAAAUGAAUAUGUCAUAGUUCCAUGAAAGCCAAAAGUGGCUUUGAUGUUUCUAUGAUAAGGGUUUCGGCCCGUGGCGUCGGGGAUCGCCUGCCCAUUCCGAUGGGCUUCUCCCCAUUUAUU
DNA 1: GAACAACTCAAATGGAAATGAATAT
DNA 2: ATATTCATTTCCATTTGAGTTGTTC
On to B2, for which the activity turned out to be 25.2 % mutated reads.
